From patent publication US20240245798A1 (TUBULIS, published 2024)

Columns and labels:
[1] = target: T1, recombinant hexameric human C1q complement protein (human, UniProt P02745 23-245; P02746 28-253; P02747 29-245, limits assumed); experiment: HTRF human C1q binding assay (Cisbio)
T1 construct: Described only as recombinant hexameric C1q; also called complement factor C1q

[2] = target: T2, purified recombinant human 5T4 antigen, extracellular domain as 6x-Histidine fusion protein (glycosylated) (human, UniProt Q13641 32-355); experiment: ELISA on immobilized recombinant human 5T4 ECD-6xHis; apparent KD, one-site specific binding fit
T2 construct: Expressed in Expi-HEK293; also called glycosylated 5T4; recombinant immobilized human 5T4 antigen; not shown: 6x-Histidine tag
T2 sequence: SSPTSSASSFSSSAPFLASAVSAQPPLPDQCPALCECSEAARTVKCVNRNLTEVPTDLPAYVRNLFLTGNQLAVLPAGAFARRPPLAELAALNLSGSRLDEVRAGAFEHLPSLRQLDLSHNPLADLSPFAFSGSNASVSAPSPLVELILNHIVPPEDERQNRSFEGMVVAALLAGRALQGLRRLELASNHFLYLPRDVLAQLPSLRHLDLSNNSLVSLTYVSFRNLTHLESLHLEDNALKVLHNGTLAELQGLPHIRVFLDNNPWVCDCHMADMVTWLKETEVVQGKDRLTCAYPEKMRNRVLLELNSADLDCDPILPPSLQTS

[3] = target: T3, purified recombinant human 5T4 antigen, extracellular domain as 6x-Histidine fusion protein, de-glycosylated … (human, UniProt Q13641 32-355, de-glycosylated with PNGase F over night at 37 C); experiment: ELISA on immobilized PNGase F-treated recombinant human 5T4 ECD-6xHis; apparent KD, one-site specific binding fit
T3 construct: Same construct as m5 after PNGase F treatment; also called de-glycosylated 5T4; not shown: 6x-Histidine tag
T3 sequence: T2 sequence

[4] = target: T4, human 5T4 (trophoblast glycoprotein, TPBG), endogenously expressed on tumor cells (human, UniProt Q13641 32-420); experiment: flow cytometry on MDA-MB-468 cells endogenously expressing human 5T4, 0.002 to 200 nM, one-site specific binding fit
T4 construct: the protein stood on cell lines that express it endogenously; also called endogenously expressed human 5T4; MDA-MB-468 cells
T4 sequence: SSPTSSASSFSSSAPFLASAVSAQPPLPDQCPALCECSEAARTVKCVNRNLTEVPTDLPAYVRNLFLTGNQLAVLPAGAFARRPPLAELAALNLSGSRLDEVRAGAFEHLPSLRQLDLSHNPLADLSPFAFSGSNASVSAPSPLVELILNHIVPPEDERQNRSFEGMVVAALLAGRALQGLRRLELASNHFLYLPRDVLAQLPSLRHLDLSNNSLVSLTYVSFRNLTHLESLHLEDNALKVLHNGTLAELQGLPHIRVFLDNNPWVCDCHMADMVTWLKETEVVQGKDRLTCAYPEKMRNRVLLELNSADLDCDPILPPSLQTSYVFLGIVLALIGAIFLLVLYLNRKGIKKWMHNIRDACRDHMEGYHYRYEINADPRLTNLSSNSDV

[5] = target: T5, human full-length 5T4-(GGGGS)-mCherry, transiently expressed on HEK293 cells (human, UniProt Q13641 32-420); experiment: flow cytometry on mCherry-positive HEK293 cells transiently expressing human full-length 5T4-mCherry, one-site specific binding fit
T5 construct: also called human full-length 5T4-mCherry; not shown: mCherry fluorescent protein
T5 sequence: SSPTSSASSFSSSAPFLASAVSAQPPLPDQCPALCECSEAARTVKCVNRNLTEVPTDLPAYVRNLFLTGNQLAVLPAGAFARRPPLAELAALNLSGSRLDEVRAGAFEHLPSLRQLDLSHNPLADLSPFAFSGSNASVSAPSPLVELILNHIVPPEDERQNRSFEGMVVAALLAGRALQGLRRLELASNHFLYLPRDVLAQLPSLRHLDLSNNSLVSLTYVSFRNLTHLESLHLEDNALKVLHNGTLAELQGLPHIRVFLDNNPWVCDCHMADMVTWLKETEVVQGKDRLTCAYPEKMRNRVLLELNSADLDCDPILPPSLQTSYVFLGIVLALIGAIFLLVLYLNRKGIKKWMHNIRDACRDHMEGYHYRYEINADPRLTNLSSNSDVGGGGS

[6] = target: T6, white-tufted-ear marmoset full-length 5T4-(GGGGS)-mCherry, transiently expressed on HEK293 cells (white-tufted-ear marmoset (Callithrix …, UniProt Q13641 32-420 (human entry))); experiment: flow cytometry on mCherry-positive HEK293 cells transiently expressing marmoset full-length 5T4-mCherry, one-site specific binding fit
T6 construct: also called marmoset full-length 5T4-mCherry; marmoset 5T4; not shown: mCherry fluorescent protein
T6 chain: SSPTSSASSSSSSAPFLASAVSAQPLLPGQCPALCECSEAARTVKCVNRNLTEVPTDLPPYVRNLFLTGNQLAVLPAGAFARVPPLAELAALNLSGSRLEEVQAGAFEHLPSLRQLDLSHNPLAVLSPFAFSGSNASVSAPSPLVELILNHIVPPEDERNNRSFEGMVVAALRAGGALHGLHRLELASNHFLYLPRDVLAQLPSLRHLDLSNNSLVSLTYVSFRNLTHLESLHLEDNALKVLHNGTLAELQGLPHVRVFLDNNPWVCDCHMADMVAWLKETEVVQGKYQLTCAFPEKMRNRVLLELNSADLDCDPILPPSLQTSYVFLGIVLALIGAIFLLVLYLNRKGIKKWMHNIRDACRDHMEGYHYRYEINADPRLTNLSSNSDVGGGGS

T1 sequence (P02745 23-245 limits assumed, chain 1 of 3): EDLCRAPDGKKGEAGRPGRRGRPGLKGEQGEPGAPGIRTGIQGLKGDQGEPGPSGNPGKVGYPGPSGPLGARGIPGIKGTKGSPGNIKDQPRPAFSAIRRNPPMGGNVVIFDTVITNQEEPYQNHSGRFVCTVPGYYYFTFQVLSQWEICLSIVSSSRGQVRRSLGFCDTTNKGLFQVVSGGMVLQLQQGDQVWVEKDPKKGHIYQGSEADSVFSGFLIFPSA
T1 sequence (P02746 28-253 limits assumed, chain 2 of 3): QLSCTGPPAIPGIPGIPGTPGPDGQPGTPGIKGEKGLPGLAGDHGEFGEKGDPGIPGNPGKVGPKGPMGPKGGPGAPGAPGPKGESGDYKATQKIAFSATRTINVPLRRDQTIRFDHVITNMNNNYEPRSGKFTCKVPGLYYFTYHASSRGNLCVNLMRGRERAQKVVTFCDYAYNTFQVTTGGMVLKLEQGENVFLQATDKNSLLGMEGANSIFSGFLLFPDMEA
T1 sequence (P02747 29-245 limits assumed, chain 3 of 3): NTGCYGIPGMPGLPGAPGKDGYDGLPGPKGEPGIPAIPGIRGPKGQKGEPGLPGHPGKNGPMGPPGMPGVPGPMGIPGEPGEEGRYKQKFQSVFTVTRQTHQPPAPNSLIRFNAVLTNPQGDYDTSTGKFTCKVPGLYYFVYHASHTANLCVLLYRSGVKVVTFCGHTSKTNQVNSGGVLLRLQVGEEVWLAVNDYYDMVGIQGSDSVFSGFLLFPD

B1: anti-TPBG antibody HC-LALA (LALA-silenced anti-TPBG antibody) (antibody)
heavy: not shown
light: EIVMTQSPDSLAVSLGERATINCKASQSVSNDVAWYQQKPGQPPKLLIYYTSSRYAGVPDRFSGSGSGTDFTLTISSLQAEDVAVYYCQQDYNSPPTFGGGTKLEIKRTVAAPSVFIFPPSDEQLKSGTASVVCLLNNFYPREAKVQWKVDNALQSGNSQESVTEQDSKDSTYSLSSTLTLSKADYEKHKVYACEVTHQGLSSPVTKSFNRGEC
notes: also called anti-TBPG antibody; anti-TPBG mAb HC-LALA
[1]
  binding result: no binding (tested: serial dilutions 280 nM-11.6 nM)
[2]
  Kd: 100 pM
[3]
  Kd: 160 pM
[4]
  Kd: 247 pM
[5]
  Kd: 2160 pM
[6]
  Kd: 5460 pM
